In patent publication EP4745153A1, “GLP-1, GIP AND GCG RECEPTOR […] USE THEREOF” (Jiangsu Hengrui Pharmaceuticals Co., Ltd., priority 2023, dated 2025):
Starred links: 1 amine or outer side, 2 acyl side, 3 side chain; linkers in the order of their positions; H or OH if unused. Non-standard residues stand in square brackets, D forms with d. Groups on a side chain read outwards from the residue. No end group written: not given here. *: point of attachment. C20 diacid = O=C(O)CCCCCCCCCCCCCCCCCCC(=O)*; γGlu = O=C(O)[C@H](CCC(=O)[*:2])N[*:1]; αMeL = CC(C)C[C@](C)(N)C(=O)O; αMeK = C[C@](N)(CCCCN)C(=O)O; AEEA = NCCOCCOCC(=O)O; Aib = CC(C)(N)C(=O)O

T1: human glucose-dependent insulinotropic polypeptide receptor (human, UniProt P48546 22-466)
T1 sequence (looked up): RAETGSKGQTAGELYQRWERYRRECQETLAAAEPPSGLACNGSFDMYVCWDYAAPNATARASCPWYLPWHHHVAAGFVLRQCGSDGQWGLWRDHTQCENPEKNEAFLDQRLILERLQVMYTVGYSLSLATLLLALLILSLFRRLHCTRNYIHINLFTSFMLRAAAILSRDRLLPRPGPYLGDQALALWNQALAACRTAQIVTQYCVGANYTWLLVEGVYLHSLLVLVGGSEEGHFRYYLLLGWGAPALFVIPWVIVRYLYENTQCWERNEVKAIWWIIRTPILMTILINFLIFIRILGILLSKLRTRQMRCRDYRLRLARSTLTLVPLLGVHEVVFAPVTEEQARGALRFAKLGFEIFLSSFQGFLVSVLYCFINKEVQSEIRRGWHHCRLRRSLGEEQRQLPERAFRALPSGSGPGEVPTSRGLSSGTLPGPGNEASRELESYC

B1: Compound No. 0109 (peptide)
peptide: H[Aib]HGTFTSDYSKYLEK([AEEA-AEEA-γGlu-C20 diacid])[αMeK]AAQEFVEWLLAGGPSSGAPPPS-NH2
modifications: N-terminus assumed
SMILES: CC(C)C[C@H](NC(=O)[C@H](CC(C)C)NC(=O)[C@H](Cc1c[nH]c2ccccc12)NC(=O)[C@H](CCC(=O)O)NC(=O)[C@@H](NC(=O)[C@H](Cc1ccccc1)NC(=O)[C@H](CCC(=O)O)NC(=O)[C@H](CCC(N)=O)NC(=O)[C@H](C)NC(=O)[C@H](C)NC(=O)[C@](C)(CCCCN)NC(=O)[C@H](CCCCNC(=O)COCCOCCNC(=O)COCCOCCNC(=O)CC[C@H](NC(=O)CCCCCCCCCCCCCCCCCCC(=O)O)C(=O)O)NC(=O)[C@H](CCC(=O)O)NC(=O)[C@H](CC(C)C)NC(=O)[C@H](Cc1ccc(O)cc1)NC(=O)[C@H](CCCCN)NC(=O)[C@H](CO)NC(=O)[C@H](Cc1ccc(O)cc1)NC(=O)[C@H](CC(=O)O)NC(=O)[C@H](CO)NC(=O)[C@@H](NC(=O)[C@H](Cc1ccccc1)NC(=O)[C@@H](NC(=O)CNC(=O)[C@H](Cc1c[nH]cn1)NC(=O)C(C)(C)NC(=O)[C@@H](N)Cc1c[nH]cn1)[C@@H](C)O)[C@@H](C)O)C(C)C)C(=O)N[C@@H](C)C(=O)NCC(=O)NCC(=O)N1CCC[C@H]1C(=O)N[C@@H](CO)C(=O)N[C@@H](CO)C(=O)NCC(=O)N[C@@H](C)C(=O)N1CCC[C@H]1C(=O)N1CCC[C@H]1C(=O)N1CCC[C@H]1C(=O)N[C@@H](CO)C(N)=O
B2: Compound No. 0108 (peptide)
peptide: H[Aib]HGTFTSDYSKY[αMeL]EK([AEEA-AEEA-γGlu-C20 diacid])KAAQEFVEWLLAGGPSSGAPPPS-NH2
modifications: N-terminus assumed
SMILES: CC(C)C[C@H](NC(=O)[C@H](CC(C)C)NC(=O)[C@H](Cc1c[nH]c2ccccc12)NC(=O)[C@H](CCC(=O)O)NC(=O)[C@@H](NC(=O)[C@H](Cc1ccccc1)NC(=O)[C@H](CCC(=O)O)NC(=O)[C@H](CCC(N)=O)NC(=O)[C@H](C)NC(=O)[C@H](C)NC(=O)[C@H](CCCCN)NC(=O)[C@H](CCCCNC(=O)COCCOCCNC(=O)COCCOCCNC(=O)CC[C@H](NC(=O)CCCCCCCCCCCCCCCCCCC(=O)O)C(=O)O)NC(=O)[C@H](CCC(=O)O)NC(=O)[C@](C)(CC(C)C)NC(=O)[C@H](Cc1ccc(O)cc1)NC(=O)[C@H](CCCCN)NC(=O)[C@H](CO)NC(=O)[C@H](Cc1ccc(O)cc1)NC(=O)[C@H](CC(=O)O)NC(=O)[C@H](CO)NC(=O)[C@@H](NC(=O)[C@H](Cc1ccccc1)NC(=O)[C@@H](NC(=O)CNC(=O)[C@H](Cc1c[nH]cn1)NC(=O)C(C)(C)NC(=O)[C@@H](N)Cc1c[nH]cn1)[C@@H](C)O)[C@@H](C)O)C(C)C)C(=O)N[C@@H](C)C(=O)NCC(=O)NCC(=O)N1CCC[C@H]1C(=O)N[C@@H](CO)C(=O)N[C@@H](CO)C(=O)NCC(=O)N[C@@H](C)C(=O)N1CCC[C@H]1C(=O)N1CCC[C@H]1C(=O)N1CCC[C@H]1C(=O)N[C@@H](CO)C(N)=O
B3: Compound No. 0110 (peptide)
peptide: H[Aib]HGTFTSDYSKYLEK([AEEA-AEEA-γGlu-C20 diacid])K[Aib]AQEFVEWLLAGGPSSGAPPPS-NH2
modifications: N-terminus assumed
SMILES: CC(C)C[C@H](NC(=O)[C@H](CC(C)C)NC(=O)[C@H](Cc1c[nH]c2ccccc12)NC(=O)[C@H](CCC(=O)O)NC(=O)[C@@H](NC(=O)[C@H](Cc1ccccc1)NC(=O)[C@H](CCC(=O)O)NC(=O)[C@H](CCC(N)=O)NC(=O)[C@H](C)NC(=O)C(C)(C)NC(=O)[C@H](CCCCN)NC(=O)[C@H](CCCCNC(=O)COCCOCCNC(=O)COCCOCCNC(=O)CC[C@H](NC(=O)CCCCCCCCCCCCCCCCCCC(=O)O)C(=O)O)NC(=O)[C@H](CCC(=O)O)NC(=O)[C@H](CC(C)C)NC(=O)[C@H](Cc1ccc(O)cc1)NC(=O)[C@H](CCCCN)NC(=O)[C@H](CO)NC(=O)[C@H](Cc1ccc(O)cc1)NC(=O)[C@H](CC(=O)O)NC(=O)[C@H](CO)NC(=O)[C@@H](NC(=O)[C@H](Cc1ccccc1)NC(=O)[C@@H](NC(=O)CNC(=O)[C@H](Cc1c[nH]cn1)NC(=O)C(C)(C)NC(=O)[C@@H](N)Cc1c[nH]cn1)[C@@H](C)O)[C@@H](C)O)C(C)C)C(=O)N[C@@H](C)C(=O)NCC(=O)NCC(=O)N1CCC[C@H]1C(=O)N[C@@H](CO)C(=O)N[C@@H](CO)C(=O)NCC(=O)N[C@@H](C)C(=O)N1CCC[C@H]1C(=O)N1CCC[C@H]1C(=O)N1CCC[C@H]1C(=O)N[C@@H](CO)C(N)=O
B4: Compound No. 0104 (peptide)
peptide: H[Aib]HGTFTSDYS[αMeK]YLEK([AEEA-AEEA-γGlu-C20 diacid])KAAQEFVEWLLAGGPSSGAPPPS-NH2
modifications: N-terminus assumed
SMILES: CC(C)C[C@H](NC(=O)[C@H](CC(C)C)NC(=O)[C@H](Cc1c[nH]c2ccccc12)NC(=O)[C@H](CCC(=O)O)NC(=O)[C@@H](NC(=O)[C@H](Cc1ccccc1)NC(=O)[C@H](CCC(=O)O)NC(=O)[C@H](CCC(N)=O)NC(=O)[C@H](C)NC(=O)[C@H](C)NC(=O)[C@H](CCCCN)NC(=O)[C@H](CCCCNC(=O)COCCOCCNC(=O)COCCOCCNC(=O)CC[C@H](NC(=O)CCCCCCCCCCCCCCCCCCC(=O)O)C(=O)O)NC(=O)[C@H](CCC(=O)O)NC(=O)[C@H](CC(C)C)NC(=O)[C@H](Cc1ccc(O)cc1)NC(=O)[C@](C)(CCCCN)NC(=O)[C@H](CO)NC(=O)[C@H](Cc1ccc(O)cc1)NC(=O)[C@H](CC(=O)O)NC(=O)[C@H](CO)NC(=O)[C@@H](NC(=O)[C@H](Cc1ccccc1)NC(=O)[C@@H](NC(=O)CNC(=O)[C@H](Cc1c[nH]cn1)NC(=O)C(C)(C)NC(=O)[C@@H](N)Cc1c[nH]cn1)[C@@H](C)O)[C@@H](C)O)C(C)C)C(=O)N[C@@H](C)C(=O)NCC(=O)NCC(=O)N1CCC[C@H]1C(=O)N[C@@H](CO)C(=O)N[C@@H](CO)C(=O)NCC(=O)N[C@@H](C)C(=O)N1CCC[C@H]1C(=O)N1CCC[C@H]1C(=O)N1CCC[C@H]1C(=O)N[C@@H](CO)C(N)=O

Each binder was assayed against human glucagon-like peptide-1 receptor (human, UniProt P43220 24-463) (assay: cell-based or functional assay).

Binder | Activity against human GLP-1R (EC50 nM) [nM]
B1 | 0.011
B2 | 0.014
B3 | 0.016
B4 | 0.01

Each binder was assayed against human glucagon receptor (human, UniProt P47871 26-477) (assay: cell-based or functional assay).
human glucagon receptor, sequence (P47871 26-477): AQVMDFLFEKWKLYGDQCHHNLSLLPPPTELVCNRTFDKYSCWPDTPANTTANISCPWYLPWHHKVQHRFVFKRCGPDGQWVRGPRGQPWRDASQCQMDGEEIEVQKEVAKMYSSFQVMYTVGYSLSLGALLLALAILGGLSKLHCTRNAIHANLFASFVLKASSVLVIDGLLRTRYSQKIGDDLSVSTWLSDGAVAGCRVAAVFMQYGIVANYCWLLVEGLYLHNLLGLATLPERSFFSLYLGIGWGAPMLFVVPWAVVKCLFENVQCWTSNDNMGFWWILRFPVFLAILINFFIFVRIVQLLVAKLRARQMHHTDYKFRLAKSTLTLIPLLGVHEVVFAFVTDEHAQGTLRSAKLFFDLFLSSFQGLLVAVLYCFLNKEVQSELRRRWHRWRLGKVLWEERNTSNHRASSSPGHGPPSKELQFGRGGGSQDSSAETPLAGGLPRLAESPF

Binder | Activity against human GCGR (EC50 nM) [nM]
B1 | 0.031
B2 | 0.315
B3 | 0.044
B4 | 0.037

Each binder was assayed against T1, human glucose-dependent insulinotropic … (assay: cell-based or functional assay).

Binder | Activity against human GIPR (EC50 nM) [nM]
B1 | 0.027
B2 | 0.078
B3 | 0.043
B4 | 0.016
